Experimental data from patent publication US20260263521A1 (AIMED BIO, published 2026).

What was measured:
[1] = target: T1, human CD200R1 expressed on cells (Jurkat-CD200R1, U937-CD200R1, HH cells) (human, UniProt Q8TD46 25-348); assay: cell-based or functional assay
T1 sequence (looked up): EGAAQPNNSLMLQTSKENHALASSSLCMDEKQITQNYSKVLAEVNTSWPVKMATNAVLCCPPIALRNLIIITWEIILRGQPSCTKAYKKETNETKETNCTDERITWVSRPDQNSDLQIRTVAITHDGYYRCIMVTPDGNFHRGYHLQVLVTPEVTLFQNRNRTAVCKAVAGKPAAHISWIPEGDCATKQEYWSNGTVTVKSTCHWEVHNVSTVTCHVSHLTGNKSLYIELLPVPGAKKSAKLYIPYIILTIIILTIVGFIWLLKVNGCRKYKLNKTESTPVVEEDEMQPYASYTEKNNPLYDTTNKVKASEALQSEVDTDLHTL

[2] = target: T1, human CD200R1 expressed on cells …; assay: flow cytometry, Jurkat-CD200R cells
Protocol: Two additional wells were treated with 10 μl of mouse IgG1K (BD, #555751) and 5 μl of commercial CD200R1 antibody (Biolegend, #329308) to determine CD200R1 expression on the cell line surface for cell quality control.
The antibodies were serially diluted 10-fold from a maximum concentration of 100 nM to 10 nM, 1 nM, […], and were added to the pre-seeded cells. After reaction for 1 hour at 4° C., the cells were treated with Alexa-647 goat anti-human IgG (H+L) cross-adsorbed secondary antibody (Invitrogen, #A21445) and incubated for an additional 30 minutes at 4° C. After washing twice with FACS buffer, flow cytometry was performed using a Novocyte Flow cytometer (Agilent). Using GraphPad Prism software, the EC₅₀ was determined using a nonlinear graph model of log (agonist) vs. response-variable slope, as shown in Table 32.

[3] = target: T2, monkey CD200RLa (Sino Biological, 11576-C02H) recombinant protein (monkey (cyno), UniProt A0A2K5W6R0 30-246); assay: ELISA, plate-bound monkey CD200RLa (2 ug/mL), antibody 0.0192-300 nM, O.D 450 nm; panel 'recombinant cynomolgus CD200RLa/Fc'
T2 construct: Bought; construct not described; also called cyno CD200RLa
T2 sequence: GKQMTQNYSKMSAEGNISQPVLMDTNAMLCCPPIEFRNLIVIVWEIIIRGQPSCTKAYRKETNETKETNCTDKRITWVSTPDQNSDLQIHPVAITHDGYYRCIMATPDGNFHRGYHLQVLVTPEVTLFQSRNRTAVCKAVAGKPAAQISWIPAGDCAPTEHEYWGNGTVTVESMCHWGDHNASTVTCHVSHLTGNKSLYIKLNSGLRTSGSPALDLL
Protocol: 96-well plates were coated with human CD200RLa (Sino Biological, 11620-H08H) and monkey CD200RLa (Sino Biological, 11576-C02H) recombinant proteins at a concentration of 2 μg/mL at 4° C. for 16 hours, and blocked with 3% skim milk for 1 hour. […] Color was developed with a TMB substrate solution (Thermo Scientific, 34029, 1-Step™ Ultra TMB-ELISA Substrate Solution). The color reaction was stopped with stop solution (Invitrogen, SS04, ELISA Stop Solution).

B1: P001009 (IgG) (antibody, V domains shown)
VH: EVQLLESGGGLVQPGGSLRLSCAASGFTFSSYDMSWVRQAPGKGLEWVSWISHGGGSIYYADSVKGRFTISRDNSKNTLYLQMNSLRAEDTAVYYCARDAPAYSAPLFDYWGQGTLVTVSS
VL: QSVLTQPPSASGTPGQRVTISCSGSSSNIGNNAVNWYQQLPGTAPKLLIYYDSNRPSGVPDRFSGSKSGTSASLAISGLRSEDEADYYCAAWDDSLSGYVFGGGTKLTVL
notes: also called P001009 WT; P001009 wt
- EC50 (nM), degree of signal transduction by the Dok2 protein [1]: 1.57 nM
- EC50 [2]: 0.22 nM
- binding result [3]: no binding (tested: 300 nM)
